Measured values taken from US20220324932A1 (CSPC MEGALITH BIOPHARMACEUTICAL, published 2022).
Values belong to the binder of their own block, whether it stands above or below them.

Biological target: T1, IL-2Rα (CD25) on the cell surface of mouse T cells (CTLL-2 cells; Treg cells of C57BL/6 mice) (mouse, UniProt P01590 22-268)
T1 sequence (looked up): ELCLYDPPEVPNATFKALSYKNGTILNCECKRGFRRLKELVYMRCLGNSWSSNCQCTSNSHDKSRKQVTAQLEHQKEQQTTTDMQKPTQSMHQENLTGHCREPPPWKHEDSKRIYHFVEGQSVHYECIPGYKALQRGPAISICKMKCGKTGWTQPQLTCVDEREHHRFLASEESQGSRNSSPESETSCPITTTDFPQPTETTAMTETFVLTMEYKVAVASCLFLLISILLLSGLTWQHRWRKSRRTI
Assay: cell-based or functional assay

fold decrease in bioactivity in inducing CTLL-2 cell growth, compared to parent IL-2 Aldesleukin: ~49 fold | percentage of Treg cells in blood of C57BL/6 mice after treatment: 0.32%
B1: IL-2A2 (modified IL-2 protein with exogenous patch sequence IFKQTY replacing a portion of IL-2 Aldesleukin) (ligand)
chain: PTSSSTKKTQLQLEHLLLDLQMILNGINNYKNPKLTRMLIFKQTYPKKATELKHLQCLEEELKPLEEVLNLAQSKNFHLRPRDLISNINVIVLELKGSETTFMCEYADETATIVEFLNRWITFSQSIISTLT

percentage of Treg cells in blood of C57BL/6 mice after treatment: 0.25%
B2: PEG-20K-IL-2A2 (IL-2A2 conjugated with 20 kDa methoxy-PEG-amine) (ligand)
chain: B1 chain
modifications: 20 kDa methoxy-PEG-amine conjugated by mTGase to the engineered Q residue of the IFKQTY patch
